What was measured:
[1] = biological target: the molecule itself
[2] = biological target: T1, bacteriophage T7 ejection protein gp16 (internal virion protein), N-terminal 10x His-tagged, full-length (bacteriophage T7, UniProt P03726 1-1318)
T1 sequence (looked up): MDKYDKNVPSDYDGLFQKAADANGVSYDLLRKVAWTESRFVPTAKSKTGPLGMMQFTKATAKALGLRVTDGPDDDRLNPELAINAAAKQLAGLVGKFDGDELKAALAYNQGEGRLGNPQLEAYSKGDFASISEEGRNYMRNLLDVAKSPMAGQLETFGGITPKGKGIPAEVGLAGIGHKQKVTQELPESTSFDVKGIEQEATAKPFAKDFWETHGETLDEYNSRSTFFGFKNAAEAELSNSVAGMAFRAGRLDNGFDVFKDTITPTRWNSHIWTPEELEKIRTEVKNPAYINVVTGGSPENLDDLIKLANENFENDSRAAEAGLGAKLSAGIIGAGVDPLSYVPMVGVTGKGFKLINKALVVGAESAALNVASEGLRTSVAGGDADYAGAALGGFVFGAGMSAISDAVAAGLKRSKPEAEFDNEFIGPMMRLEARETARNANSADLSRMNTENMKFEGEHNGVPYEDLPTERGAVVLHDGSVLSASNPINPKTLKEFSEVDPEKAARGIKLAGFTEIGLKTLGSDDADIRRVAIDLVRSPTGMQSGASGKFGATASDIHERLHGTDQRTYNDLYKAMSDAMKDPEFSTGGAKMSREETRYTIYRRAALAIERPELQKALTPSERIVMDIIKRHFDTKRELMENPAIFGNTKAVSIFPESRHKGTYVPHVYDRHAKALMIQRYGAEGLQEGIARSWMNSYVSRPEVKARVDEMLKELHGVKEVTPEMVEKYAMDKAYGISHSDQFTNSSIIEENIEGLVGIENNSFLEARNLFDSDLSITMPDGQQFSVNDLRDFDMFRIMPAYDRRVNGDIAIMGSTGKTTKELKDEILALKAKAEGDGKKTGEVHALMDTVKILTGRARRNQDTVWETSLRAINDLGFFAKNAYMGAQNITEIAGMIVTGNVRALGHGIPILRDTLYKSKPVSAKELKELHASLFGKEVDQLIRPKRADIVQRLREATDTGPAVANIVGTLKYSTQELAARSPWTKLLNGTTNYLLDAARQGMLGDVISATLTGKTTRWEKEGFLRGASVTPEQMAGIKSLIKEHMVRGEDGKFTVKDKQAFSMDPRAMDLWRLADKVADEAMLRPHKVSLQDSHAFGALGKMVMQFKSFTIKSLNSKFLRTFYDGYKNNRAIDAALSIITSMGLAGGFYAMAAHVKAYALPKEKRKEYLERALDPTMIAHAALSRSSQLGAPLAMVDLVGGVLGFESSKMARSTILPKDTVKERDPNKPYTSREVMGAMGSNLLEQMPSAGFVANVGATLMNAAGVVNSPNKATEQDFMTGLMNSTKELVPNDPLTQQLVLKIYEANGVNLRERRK

B1: bacteriophage T7 ejection protein gp15 (internal virion protein), N-terminal 10x His-tagged, full-length (natural protein, UniProt P03725 1-747, looked up)
chain: MSKIESALQAAQPGLSRLRGGAGGMGYRAATTQAEQPRSSLLDTIGRFAKAGADMYTAKEQRARDLADERSNEIIRKLTPEQRREALNNGTLLYQDDPYAMEALRVKTGRNAAYLVDDDVMQKIKEGVFRTREEMEEYRHSRLQEGAKVYAEQFGIDPEDVDYQRGFNGDITERNISLYGAHDNFLSQQAQKGAIMNSRVELNGVLQDPDMLRRPDSADFFEKYIDNGLVTGAIPSDAQATQLISQAFSDASSRAGGADFLMRVGDKKVTLNGATTTYRELIGEEQWNALMVTAQRSQFETDAKLNEQYRLKINSALNQEDPRTAWEMLQGIKAELDKVQPDEQMTPQREWLISAQEQVQNQMNAWTKAQAKALDDSMKSMNKLDVIDKQFQKRINGEWVSTDFKDMPVNENTGEFKHSDMVNYANKKLAEIDSMDIPDGAKDAMKLKYLQADSKDGAFRTAIGTMVTDAGQEWSAAVINGKLPERTPAMDALRRIRNADPQLIAALYPDQAELFLTMDMMDKQGIDPQVILDADRLTVKRSKEQRFEDDKAFESALNASKAPEIARMPASLRESARKIYDSVKYRSGNESMAMEQMTKFLKESTYTFTGDDVDGDTVGVIPKNMMQVNSDPKSWEQGRDILEEARKGIIASNPWITNKQLTMYSQGDSIYLMDTTGQVRVRYDKELLSKVWSENQKKLEEKAREKALADVNKRAPIVAATKAREAAAKRVREKRKQTPKFIYGRKE
[1]
  stoichiometry N: 6
[2]
  stoichiometry N: 1 gp15:gp16 (6:6)
